# The DeepSol protein solubility set
# Experiment: soluble on expression in E. coli; label from the status in PepcDB or PDB records
row,Sequence,soluble on expression in E. coli
1,MRVLILGGTGNAAELAARVATIQGVDAITSLAGRTREPSVPLGDLRVGGFGGVAGLASYLQAMQIDLLIDATHPFASQISFNAADAAKEVGVPRLMLIRPPWEKGSGDRWMEVDNVEAAAASLQNQAHRVFLTVGRQELAAFAHLEEIWFLMRMIDPPVDDALVPPGMVLCDRGPFNLNNERQILIDRKIDTIVSKNSGGDATKPKIIAARELGVKVVMVNRPAIPPGEQVSDVEGALVWLLEKLHN,not soluble
2,MFFAIILLVHTILLPSTLLYQCATAKRPANQRKSQRSTKSRKSSRRSRRRNGRSRKSSRSGKSSRSSKSGRSSKSSNSTKTTGSKSSKSSRSQRSNKSNKMVTNPKGFSDRKIRAAILADQKAAADAVKSQKLSSNNSSEKQLNAHNDNKISYVNVRVIPHELIFPPIGGMKHVRVKNSTGKPIAYMAKCSDNILFRINPVYGIIDTDRDAQINILRENGAAKHDKLVIVTTVHHDANKTAQHTFSQLNQGIENPNYNVNVVPLLTQ,soluble
3,MSLTEAPRVRLVGAEIFERPVEFRFPFRFGAARVTNAPQAFVRVRVEDASGRSTIGRSAEMMMPKWFDKNPSLSPEDNVGQLRASLRLAAEGLKSLQAETAFGLHVAAETEHHQAAATHGLPPLVASYGLALLDRAILDAVCRMMGACAAEAVRNNLLGVSGVAAPDLAGFDLTRFLSRLNVSSRLAVRHTIGLADVLTVADLGAMQRPADGLPQTLEDVIAAYGHRYFKIKVSGRPAEDIERLVAIAAILDDRVGDYRATLDGNEQFENIDLVCDLLDRIEEEPRLKRLRASMLFFEQPIARAEALSKPVVAAAQRMPLEIDESDGDMGAFLRARELGYAGISSKSCKGFYRALINRARVEKWNAEAGSSHYFMSAEDLTTQAGLALQQDLVLASLVGAGHVERNGHHYVDGMAGAPEGEQLAYLSHHGDLYEGAAGQTRLAIQAGEITFATALRSVGLGSSVDPDWAAMRPVSEGHHHHHH,not soluble
4,MEYREFDFWYYKIGNGDANLTCKMSYNPKSPIFTDFPDTVVHTVLEKLLPAERMVVRNVSKKLRNLFDERYRVIKNVYMQVQDEEAILFFENHEELEKTFSCNGNDGNEKYLEIALEKVAKFTKNHKLEEFEVHFDDEAGEKHRWGLYDDVSDMFKASKAVLNTKKFSIELLRPDDAKAAFSHFKPGNLEDIEIEYFCTGYKYPKYPRCPRYDDDSDDSFEDNMGMYEQLTELAHWQKAKKVKIGVDDSLDFSIEALFHLENFEISLNKFTKNDAIKIRDVLLQTAHFQSGIITFSKDPGGTNMLKVFNPKYSGGENGPIIYKTKDSRFEIGLGYSSIEFKRI,not soluble
5,MLKQTFLLSALLFGLSACQSTDVAKQDTVPLQGSWHIEAVQGQPTVDYSPAQITFDAEGKISGNNSCNNFFGQYSQQGQELKIIPGGSTMKACVDALMQQEHKVMQALPLVAKAKLVEGRLTLLSSDDKAVFVLSQLK,soluble
6,MQQEEPNKYVKELTQEKYKYGFTTEVHTDVIERGLNEDVVRLISSKKDEPEWLLEFRLKAYRHWLTLEMPTWAHLRIPEIDYQAISYYADPTKKKEGPKSMDEVDPELIKTFNKLGIPLEEQMALSGMAVDAVMDSVSVKTTFKETLMEKGIIFCSFSEAVREHPDLVKKYMGSVVGYRDNFFAALNSAVFSDGSFVYIPKGVRCPMELSTYFRINARNTGQFERTLIVADDDSYVSYLEGCTAPMRDENQLHAAIVEIVVHDRAEVKYSTVQNWYPGDAEGKGGVYNFVTKRGNCKGVDSKLSWTQVETGSAITWKYPSCILTGDNSTAEFYSVAVTNNYQQADTGTKMIHLGKNTRSTIVSKGISAGHSENSYRGLVRVAEKADNARNYSQCDSLLLGDKCGAHTFPYMDIHNETAVVEHEATTSKISEDQIFYCNQRGIPTEDAIGLIVNGYAKEVLNKLPMEFAVEAQKLLTISLEGSVG,not soluble
7,MSLDSSKRQFLQQLGVLTAGASLVPLAEAKFPFSPERHEGSPRHRYAMLIDLRRCIGCQSCTVSCTIENQTPQGAFRTTVNQYQVQREGSQEVTNVLLPRLCNHCDNPPCVPVCPVQATFQREDGIVVVDNKRCVGCAYCVQACPYDARFINHETQTADKCTFCVHRLEAGLLPACVESCVGGARIIGDIKDPHSRIATMLHQHRDAIKVLKPENGTSPHVFYLGLDDAFVTPLMGRAQPALWQEGHHHHHH,not soluble
8,MSLKGRVAVRTVDAIPQTFAINGIFRISRGSKTSAQVIAVSIAESGYIGRGECVPYARYGETIESVMDQIRSMTPAIEAGMDLSELQSAMAPGAARNAVDCALWDLRAQKTRQSLASVIELGHELQPVLTAFTISLDAPAAMGKAAAVHEHLPILKLKLGGDGDLERVRAVRAAAPHARLMVDANEAWSIDHLRAFAPEFAAMGVELIEQPLPADADDFLKSFNSPVPLAADESCRTLMSLSKIVGKYEIANIKLDKAGGLTEALSLQAAARASGLGTMVGCMVATSLSMAPGIILAQRADVVHLDGPLLLAEDRTPSLRYSGATLYPPEPEVWGGEGHHHHHH,soluble
9,MGSDKIHHHHHHMTRNANKNNKECEKCWIFDLNQFKMITNSILEENTLVLEINQNYEVSVLMDYDVFLENGILTFKDFVNDNSKSAQVLTGSLKTGILNKMSQSISEGLLNKTTNRRTYYITEPTPLIGHTAFGLIDRGTNVIQVRGLSGCNINCPFCSVDEGIHSKSRKNDYYVDKDYLVSEYEKIADFKGYKKLEAHLDGQGEPSLYYPLPDLVQNLNEINSKNNGIVSIQTNGVHLTEKLIDDLEVAGLHRINLSINAMDEKFSKGLSGSKNYDIEKIMKIAEYIKNSKIHLLIAPLLLPNYNDEEFKKVLDFAVELEQKNPQNTINPITNKKNPIVGPQLCLTYQFGRKIPKMRVWDFPKFYNLLDVYHKEYLKDGINVDLEVPLHGFFGSHGRKRLPCPFKLNETISVTVLMDGRVNGEVIGASKNRVIQIIDCKTDINKLIGKRVKVKVLRVKDNVIVGSMVK,not soluble
10,GSGAVSIASSKVSAQYTSTVPPSHYIETWAKTHPEWKAVEVATGFLGSQKIVTEDWTYKKLNETANQVANLIIHASLHGRAIAVSLDRSLIAFAIIVGIMKSGNTYVPIEAGLPNDRKSFLLRDSRAAMAFVCDNNFDGVELPPETKVLDTKNQSFIENLSTQDTSDILNNYPENLDAYLLYTSGSTGTPKGVRVSRHNLSSFSDAWGKLIGNVAPKSLELGGVGKFLCLASRAFDVHIGEMFLAWRFGLCAVTGERLSMLDDLPRTFRELGVTHAGIVPSLLDQTGLVPEDAPHLVYLGVGGEKMTPRTQQIWSSSDRVALVNVYGPTEVTIGCSAGRILPDSDTRCIGHPLGDSVAHVLAPGSNEHVKKGMAGELVIEGSLVANGYLNRPDAKGFCDINGRKMYRTGDIVRMDADSSILFLGRKDEQVKVRGQRLELGEVSEVIRSLSPTDIDVVTLLLNHPGTSKQFLVSFVASSGAAVRGELRWINENYKEINNSLRQACEQTLPAYMVPDFIIPISFIPLRDTSAKTDAKALEHMFHTLSLGELFGESSSLVNKPTT,soluble
11,TLINHLKSLKSQVSAKSASETSQTKQNKTFLAFTTVNADQKAIFDVGKLNGKTAKIIINATETTNAKISTLQEKEAIVLKAPQRFESTDPFPI,not soluble
12,MGHHHHHHSHMIGPIIDKLEKVAVRGGDKKLKPEYDIMCKVKSWVIDQKKPVRFYHDWNDKEIEVLNKHLFLTSKPMVYLVNLSEKDYIRKKNKWLIKIKEWVDKYDPGALVIPFSGALELKLQELSAEERQKYLEANMTQSALPKIIKAGFAALQLEYFFTAGPDEVRAWTIRKGTKAPQAAGKIHTDFEKGFIMAEVMKYEDFKEEGSENAVKAAGKYRQQGRNYIVEDGDIIFFKFNTPRQPKKK,not soluble
13,MEEWDVPQMKKEVESLKYQLAFKREMSSKTIPELLKWIEDGIPKDPFLNPDLMKNNPWVEKAKCTIL,not soluble
14,MDMNFDLYMNGVVEQARNEIESAGYEQLTTAEDVDKVLKQDGTTLVMINSVCGCAGGIARPAASHALHYDVLPDRLVTVFAGQDKEATQRAREYFEGYAPSSPSFALVKDGKITEMIERHQIEGHDVMNVINQLQTLFNKYCEERLEHHHHHH,soluble
15,MAHHHHHHMGSKHPRGSTSAPAHEEEQQAHVDTEHHTEPPSFTAGPEVAEMQVTVTPTMPPTSMEQASMTVSGEGPSTLAVPKQQHLRHKSFTMTEVQQLISVNPDRTLVIIRDKVYDVTTFLASHPGGKSALRRNNGKDVTDAFFSMHSAMAVRKLPDFLIGELAPPESTSAAGEETPTAALVPARLRMADITKALSEDLNRIILILFSDAYDVTSMRDKHPGGLSVLVNNNGRECGDTFMRIHGLLAKEMVKQFYLGPVEGLAQGRSPLRPAVAAEVESTAITPAGPKAQSTRILEIESVNSTVTIRYFTFSCPKPLYMIPGGHIKLYSNLHEKESRFYTPFKTGVSSFTICMKHYPNGRTSGYLFDLKEGDEVFFDGPLPPSWQLNTDAAVQRAAPEERHVVLVGGGTGIAPLYSMSSNALETQFSSVTLVCSVRTPDDLILATELRQLANRYSTALPIQKHTLRIVLLFSRASPQDISVESTSFASHVLCGGRLTAESFKGTEIHPAQAVVVCGPPTFNDAVAAAVLEAGICTATQVHHL,not soluble
16,MGSDKIHHHHHHMISHKKDQAAGLRELTALEPNAGVRVFAVVGGRTGVGKTSSVINLAVALAKTGKRVLILDENPRHKDVNANLGLSARYDLLHVINQDKTLEQVMTQGPEDVLVLTAMRGIHSLAKLSSADQERLIQCFSELSQTVDVVLIDTAIGRTSRVVPLSLASQQVLIVLSASGKAITDAYALIKLISQEYARRDFLVLVNKVESESMGRDIFENIAGVAQKHLAVKLEWMGCILFDEKLQRSTRLCQPVVEIFPTSASAAGYRQLAEKLMRCAGPWTDNDGVENFMRRLIRTSHLDIADFTV,not soluble
17,MLNPLRALTLGGLLLFSTLGHAAPAAPDALRIGYQKGSVSMVLAKSHQLLEQRYPQTHISWIEFPAGPQMLEALNVGSIDIGSTGDIPPIFAQAAGADLVYIGAEPPKPKAEVILVAQGSPIHNVAELKGKKVAFQKGSSSHNLLLRALQLAGLKFSDIQPVYLAPADARAAFQQGNVDAWAIWDPYYSAALLQGGARVLTDGTDLKQTGSFYLASRPYAERNGAFIEGVLDTFTQADALTHSQRAQSITLLAKTMGLPEAVIASYLDHRPPTAVTPVSAETAARQQQTADLFYENKLVPKKVDIRARIWQPTATQGAKS,not soluble
18,ASVLTVKDIARKKPAAVFKKSEHDGPGSAMQILMDHDRDYGIVVDKSSRYSGIVSLDSLRLAHKENRSLASAQLEDDVTLQPDQSVNDILGVVASVPYAVPVVDEQGTYFGVVTKSRLLQTLDKD,soluble
19,MRGSHHHHHHTDPALRANEFSILCRVLGSLYYRQPQDPLLVPLFTLIREGKLAANWPLEQDELLTRLQKSCDMTQVSADYNALFIGDECAVPPYRSAWVEGATEAEVRAFLSERGMPLADTPADHIGTLLLAASWLEDQSTEDESEALETLFSEYLLPWCGAFLGKVEAHATTPFWRTMAPLTRDAISAMWDELEEDSEEGLCGR,soluble
20,MERKHHFVLVHNAYHGAWIWYKLKPLLESAGHRVTAVELAASGIDPRPIQAVETVDEYSKPLIETLKSLPENEEVILVGFSFGGINIALAADIFPAKIKVLVFLNAFLPDTTHVPSHVLDKYMEMPGGLGDCEFSSHETRNGTMSLLKMGPKFMKARLYQNCPIEDYELAKMLHRQGSFFTEDLSKKEKFSEEGYGSVQRVYVMSSEDKAIPCDFIRWMIDNFNVSKVYEIDGGDHMVMLSKPQKLFDSLSAIATDYM,soluble
21,MSKTLDGEPIECEIIDSLKLVNNTMDKIISRGYEKSAIYTPKAYGSVYRLSETNLLSKNEFKDNLLITFMAKKFKKLIRSEKPDLIIGTHPFPMIALSTLKKNFNLHNNESNAYTEHFYKHYTNTINVPPLISVLTDYTTHSTWIQNEIDYYIVGHEYVKELLVFDGVEPSKIRTFGIPLEHHHHHH,not soluble
